Assay results from publication PMC9243176, “Multifaceted regulation of the sumoylation of the Sgs1 DNA helicase” (The Journal of Biological Chemistry, 2022).
Values belong to the binder of their own block, whether it stands above or below them.

How the values were obtained:
GST-Esc2-5E = molecular target: T1, GST-Esc2-5E (budding yeast, UniProt Q06340 1-456, K179E | K182E | K183E | K197E | R198E); test: pull-down; GST or GST-tagged Esc2 or variants (2.2 μM) incubated with 3.6 μM Ubc9 in T buffer (25 mM Tris-Cl pH 7.4, 10% glycerol, 0.5 mM EDTA, 0.01% Igepal, 1 mM DTT) with 80 mM KCl, 30 min at 4 °C; captured on Glutathione Sepharose 4B; SDS-PAGE, Coomassie blue stain; conditions: both partners purified
T1 construct: Esc2 of budding yeast with five basic residues of the midregion (MR) replaced by glutamic acid; The methods describe a pET24a construct; source: expressed and purified by published procedures
T1 sequence (looked up): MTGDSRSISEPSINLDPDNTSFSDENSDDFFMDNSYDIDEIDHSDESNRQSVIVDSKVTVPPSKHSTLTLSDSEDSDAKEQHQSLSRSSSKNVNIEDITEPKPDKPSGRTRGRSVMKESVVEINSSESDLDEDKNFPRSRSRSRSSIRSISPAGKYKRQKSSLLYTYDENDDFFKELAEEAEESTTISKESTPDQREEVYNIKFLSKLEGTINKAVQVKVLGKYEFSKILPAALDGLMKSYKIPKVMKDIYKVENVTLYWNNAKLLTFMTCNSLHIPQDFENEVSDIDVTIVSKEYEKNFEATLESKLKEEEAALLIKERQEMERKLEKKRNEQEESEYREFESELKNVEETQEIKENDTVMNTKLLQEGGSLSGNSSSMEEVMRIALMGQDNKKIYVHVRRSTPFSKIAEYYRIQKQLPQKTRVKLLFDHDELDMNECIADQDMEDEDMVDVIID

GST-Esc2-MRΔ = molecular target: T2, GST-Esc2-MRΔ (budding yeast, UniProt Q06340 1-456, truncating residues 154 to 198); test: as above; conditions: both partners purified
T2 construct: Esc2 of budding yeast lacking the midregion (MR), residues 154 to 198; The methods describe a pET24a construct; source: expressed and purified by published procedures
T2 sequence (looked up): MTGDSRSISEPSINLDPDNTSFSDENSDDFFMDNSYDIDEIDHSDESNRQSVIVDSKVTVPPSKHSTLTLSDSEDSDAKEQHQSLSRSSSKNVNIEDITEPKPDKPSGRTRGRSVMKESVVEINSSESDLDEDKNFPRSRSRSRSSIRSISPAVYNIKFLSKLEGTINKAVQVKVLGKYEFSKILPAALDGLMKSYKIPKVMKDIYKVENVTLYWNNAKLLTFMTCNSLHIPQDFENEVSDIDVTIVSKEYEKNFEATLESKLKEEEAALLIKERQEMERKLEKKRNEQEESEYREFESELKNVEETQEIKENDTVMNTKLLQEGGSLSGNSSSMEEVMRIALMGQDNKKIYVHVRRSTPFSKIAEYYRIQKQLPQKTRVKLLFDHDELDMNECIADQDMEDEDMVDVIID

Esc2 = molecular target: T3, Esc2 (Saccharomyces cerevisiae, UniProt Q06340 1-456); test: EMSA; 5-80 nM Esc2, 5 nM DNA; strong preference over dsDNA; 35 mM Tris-HCl pH 7.5, 1 mM DTT, 100 ug/ml BSA, 5 mM MgCl2, 130 mM KCl, 30 C, 10 min; native PAGE in TAE (6.5% STR and E3, 7% Esc2); conditions: protein: recombinant; four-way Holliday junction of 4 strands
T3 sequence: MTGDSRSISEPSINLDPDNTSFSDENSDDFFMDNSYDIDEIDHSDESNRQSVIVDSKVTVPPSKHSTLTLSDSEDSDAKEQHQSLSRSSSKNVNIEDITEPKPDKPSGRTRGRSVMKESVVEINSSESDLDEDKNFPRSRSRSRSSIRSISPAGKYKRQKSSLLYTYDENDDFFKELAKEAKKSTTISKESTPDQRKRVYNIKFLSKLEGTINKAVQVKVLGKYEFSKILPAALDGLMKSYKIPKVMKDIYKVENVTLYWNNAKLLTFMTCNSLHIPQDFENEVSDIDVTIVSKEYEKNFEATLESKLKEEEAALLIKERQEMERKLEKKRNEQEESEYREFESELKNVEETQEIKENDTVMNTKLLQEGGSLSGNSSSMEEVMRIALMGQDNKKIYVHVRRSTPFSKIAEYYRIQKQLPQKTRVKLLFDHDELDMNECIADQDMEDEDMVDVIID

Mms21;Smc5 = molecular target: T4, Mms21;Smc5 (Saccharomyces cerevisiae;Saccharomyces …, UniProt P38632;Q08204 1-267;1-1093, |); test: EMSA; 5-40 nM E3, 5 nM DNA; less pronounced than STR; 35 mM Tris-HCl pH 7.5, 1 mM DTT, 100 ug/ml BSA, 5 mM MgCl2, 130 mM KCl, 30 C, 10 min; native PAGE in TAE (6.5% STR and E3, 7% Esc2); conditions: protein: recombinant;recombinant; tags: ;; copies: 1;1; four-way Holliday junction of 4 strands
T4 sequence 1: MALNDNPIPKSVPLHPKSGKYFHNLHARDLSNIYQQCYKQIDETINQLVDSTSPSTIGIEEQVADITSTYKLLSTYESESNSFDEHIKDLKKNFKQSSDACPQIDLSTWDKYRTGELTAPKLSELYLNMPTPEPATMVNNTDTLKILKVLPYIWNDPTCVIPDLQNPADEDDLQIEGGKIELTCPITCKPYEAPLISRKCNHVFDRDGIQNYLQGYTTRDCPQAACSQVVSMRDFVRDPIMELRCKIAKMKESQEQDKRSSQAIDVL
T4 sequence 2: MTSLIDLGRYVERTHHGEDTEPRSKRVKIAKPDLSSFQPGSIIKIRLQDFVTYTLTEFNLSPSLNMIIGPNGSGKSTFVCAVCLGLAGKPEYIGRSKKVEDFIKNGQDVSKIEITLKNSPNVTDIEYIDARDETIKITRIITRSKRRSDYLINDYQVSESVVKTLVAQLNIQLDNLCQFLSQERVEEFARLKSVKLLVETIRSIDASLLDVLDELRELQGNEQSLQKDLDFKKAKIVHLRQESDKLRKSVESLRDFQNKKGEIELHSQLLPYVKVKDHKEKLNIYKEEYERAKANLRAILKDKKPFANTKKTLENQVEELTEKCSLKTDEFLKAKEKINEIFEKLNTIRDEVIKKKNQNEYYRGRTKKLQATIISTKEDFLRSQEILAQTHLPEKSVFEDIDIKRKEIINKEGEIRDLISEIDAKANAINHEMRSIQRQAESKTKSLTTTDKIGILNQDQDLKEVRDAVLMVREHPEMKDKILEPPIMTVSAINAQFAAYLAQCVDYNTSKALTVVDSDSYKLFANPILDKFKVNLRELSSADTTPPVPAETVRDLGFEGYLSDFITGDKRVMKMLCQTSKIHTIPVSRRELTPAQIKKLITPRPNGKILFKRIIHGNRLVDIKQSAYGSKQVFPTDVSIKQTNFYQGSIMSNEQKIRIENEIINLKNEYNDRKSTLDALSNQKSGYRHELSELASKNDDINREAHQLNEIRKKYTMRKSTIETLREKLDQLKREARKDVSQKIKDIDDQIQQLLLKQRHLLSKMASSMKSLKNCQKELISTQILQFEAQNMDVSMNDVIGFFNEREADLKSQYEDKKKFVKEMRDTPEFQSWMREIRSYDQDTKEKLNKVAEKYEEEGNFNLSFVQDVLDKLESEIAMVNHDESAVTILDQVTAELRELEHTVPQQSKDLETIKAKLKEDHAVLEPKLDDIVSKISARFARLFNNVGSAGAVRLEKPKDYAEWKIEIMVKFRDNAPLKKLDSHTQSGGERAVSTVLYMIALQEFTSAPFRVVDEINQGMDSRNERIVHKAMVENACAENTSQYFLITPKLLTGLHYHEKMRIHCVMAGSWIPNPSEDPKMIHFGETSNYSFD

Esc2-MRΔ = molecular target: T5, Esc2-MRΔ (Saccharomyces cerevisiae, UniProt Q06340 1-456, del154-198); test: EMSA; 5-80 nM protein, 5 nM DNA; 35 mM Tris-HCl pH 7.5, 1 mM DTT, 100 ug/ml BSA, 5 mM MgCl2, 130 mM KCl, 30 C, 10 min; native PAGE in TAE (6.5% STR and E3, 7% Esc2); conditions: protein: recombinant
T5 sequence: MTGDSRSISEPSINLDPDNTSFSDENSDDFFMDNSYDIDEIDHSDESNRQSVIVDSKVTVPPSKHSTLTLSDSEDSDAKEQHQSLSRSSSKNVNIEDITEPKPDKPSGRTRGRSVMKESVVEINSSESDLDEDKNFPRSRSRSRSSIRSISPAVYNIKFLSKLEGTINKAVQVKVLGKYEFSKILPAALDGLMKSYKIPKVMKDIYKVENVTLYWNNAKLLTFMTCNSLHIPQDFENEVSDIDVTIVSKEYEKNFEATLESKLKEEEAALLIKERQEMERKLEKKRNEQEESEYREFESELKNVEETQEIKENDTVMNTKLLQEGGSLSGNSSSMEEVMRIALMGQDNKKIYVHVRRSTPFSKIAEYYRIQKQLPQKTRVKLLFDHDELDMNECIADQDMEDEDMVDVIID

Esc2-5E = molecular target: T6, Esc2-5E (Saccharomyces cerevisiae, UniProt Q06340 1-456, K179E;K182E;K183E;K197E;R198E); test: as above; conditions: protein: recombinant
T6 sequence: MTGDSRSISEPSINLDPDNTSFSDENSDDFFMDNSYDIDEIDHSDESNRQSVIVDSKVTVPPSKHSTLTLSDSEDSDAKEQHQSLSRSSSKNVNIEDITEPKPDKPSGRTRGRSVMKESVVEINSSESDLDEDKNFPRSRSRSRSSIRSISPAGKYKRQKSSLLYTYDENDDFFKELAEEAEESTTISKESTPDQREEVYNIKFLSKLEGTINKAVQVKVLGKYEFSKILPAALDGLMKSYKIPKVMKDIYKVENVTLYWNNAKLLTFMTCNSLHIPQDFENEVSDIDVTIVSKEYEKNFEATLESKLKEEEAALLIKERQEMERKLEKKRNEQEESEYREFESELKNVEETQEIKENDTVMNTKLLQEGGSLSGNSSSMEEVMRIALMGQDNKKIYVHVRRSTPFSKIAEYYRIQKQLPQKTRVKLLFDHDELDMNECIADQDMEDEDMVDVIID

Sgs1;Top3;Rmi1 [1] = molecular target: T7, Sgs1;Top3;Rmi1 (Saccharomyces cerevisiae;Saccharomyces …, UniProt P35187;P13099;Q02685 1-1447;1-656;1-241, ||); test: EMSA; 5-40 nM STR, 5 nM DNA; 35 mM Tris-HCl pH 7.5, 1 mM DTT, 100 ug/ml BSA, 5 mM MgCl2, 130 mM KCl, 30 C, 10 min; native PAGE in TAE (6.5% STR and E3, 7% Esc2); conditions: protein: recombinant;recombinant;recombinant; tags: Flag;V5;GST; copies: 1;1;1; four-way Holliday junction of 4 strands
Sgs1;Top3;Rmi1 [2] = molecular target: T7, Sgs1;Top3;Rmi1; test: EMSA; 5-40 nM STR, 5 nM DNA; similar to HJ; 35 mM Tris-HCl pH 7.5, 1 mM DTT, 100 ug/ml BSA, 5 mM MgCl2, 130 mM KCl, 30 C, 10 min; native PAGE in TAE (6.5% STR and E3, 7% Esc2); conditions: protein: recombinant;recombinant;recombinant; tags: Flag;V5;GST; copies: 1;1;1; blunt
[3] = four-way Holliday junction of 4 strands

T7 sequence (P35187 whole entry, chain 1 of 3): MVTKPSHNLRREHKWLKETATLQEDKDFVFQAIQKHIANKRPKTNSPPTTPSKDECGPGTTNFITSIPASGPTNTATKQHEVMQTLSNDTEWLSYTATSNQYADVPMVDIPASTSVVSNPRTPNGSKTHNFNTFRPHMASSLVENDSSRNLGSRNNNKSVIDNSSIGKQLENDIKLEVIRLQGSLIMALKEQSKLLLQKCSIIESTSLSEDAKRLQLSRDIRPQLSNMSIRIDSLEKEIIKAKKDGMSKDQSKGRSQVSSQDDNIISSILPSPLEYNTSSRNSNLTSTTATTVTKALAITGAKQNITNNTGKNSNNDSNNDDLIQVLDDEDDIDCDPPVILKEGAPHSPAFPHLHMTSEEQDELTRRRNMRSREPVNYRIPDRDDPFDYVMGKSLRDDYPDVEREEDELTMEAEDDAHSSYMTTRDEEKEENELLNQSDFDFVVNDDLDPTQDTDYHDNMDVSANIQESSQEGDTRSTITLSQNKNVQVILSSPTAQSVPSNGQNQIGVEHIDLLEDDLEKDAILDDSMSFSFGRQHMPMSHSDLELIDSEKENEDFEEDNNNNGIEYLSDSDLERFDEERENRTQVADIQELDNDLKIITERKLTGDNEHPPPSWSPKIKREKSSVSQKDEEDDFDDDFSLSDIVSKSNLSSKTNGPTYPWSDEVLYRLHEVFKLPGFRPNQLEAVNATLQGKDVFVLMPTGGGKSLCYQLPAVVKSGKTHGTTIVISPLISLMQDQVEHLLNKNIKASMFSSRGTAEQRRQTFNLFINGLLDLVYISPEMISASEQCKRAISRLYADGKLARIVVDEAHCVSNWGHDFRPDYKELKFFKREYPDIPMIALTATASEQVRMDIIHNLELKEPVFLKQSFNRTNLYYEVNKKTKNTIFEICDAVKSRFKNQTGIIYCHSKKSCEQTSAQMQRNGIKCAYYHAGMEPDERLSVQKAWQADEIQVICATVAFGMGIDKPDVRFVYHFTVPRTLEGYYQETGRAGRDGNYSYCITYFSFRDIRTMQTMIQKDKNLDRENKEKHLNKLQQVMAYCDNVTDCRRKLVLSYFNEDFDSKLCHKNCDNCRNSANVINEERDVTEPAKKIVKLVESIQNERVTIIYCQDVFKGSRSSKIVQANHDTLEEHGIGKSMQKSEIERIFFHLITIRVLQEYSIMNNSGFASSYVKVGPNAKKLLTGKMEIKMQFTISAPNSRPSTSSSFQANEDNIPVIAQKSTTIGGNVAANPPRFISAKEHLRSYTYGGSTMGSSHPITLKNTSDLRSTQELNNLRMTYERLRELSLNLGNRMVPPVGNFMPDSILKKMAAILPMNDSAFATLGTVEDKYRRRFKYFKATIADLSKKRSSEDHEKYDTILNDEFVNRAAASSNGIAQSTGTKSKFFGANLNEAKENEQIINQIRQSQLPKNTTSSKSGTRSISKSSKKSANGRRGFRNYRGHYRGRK
T7 sequence (P13099 whole entry, chain 2 of 3): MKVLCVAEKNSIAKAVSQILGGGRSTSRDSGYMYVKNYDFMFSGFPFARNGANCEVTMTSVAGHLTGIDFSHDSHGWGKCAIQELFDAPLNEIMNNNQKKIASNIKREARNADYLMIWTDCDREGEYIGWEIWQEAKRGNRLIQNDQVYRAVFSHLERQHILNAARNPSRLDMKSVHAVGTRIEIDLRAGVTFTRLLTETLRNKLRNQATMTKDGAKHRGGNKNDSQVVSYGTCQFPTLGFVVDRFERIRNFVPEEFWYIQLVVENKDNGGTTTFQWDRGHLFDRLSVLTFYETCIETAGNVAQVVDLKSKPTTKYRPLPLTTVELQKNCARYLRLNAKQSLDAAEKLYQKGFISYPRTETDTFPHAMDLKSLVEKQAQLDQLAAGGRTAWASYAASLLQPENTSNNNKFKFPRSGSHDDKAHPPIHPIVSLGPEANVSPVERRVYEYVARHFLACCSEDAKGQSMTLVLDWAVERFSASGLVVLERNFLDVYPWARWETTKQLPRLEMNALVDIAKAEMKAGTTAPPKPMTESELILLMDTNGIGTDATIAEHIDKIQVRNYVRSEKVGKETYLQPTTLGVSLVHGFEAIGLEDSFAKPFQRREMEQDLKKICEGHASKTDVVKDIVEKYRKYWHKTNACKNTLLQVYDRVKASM
T7 sequence (Q02685 whole entry, chain 3 of 3): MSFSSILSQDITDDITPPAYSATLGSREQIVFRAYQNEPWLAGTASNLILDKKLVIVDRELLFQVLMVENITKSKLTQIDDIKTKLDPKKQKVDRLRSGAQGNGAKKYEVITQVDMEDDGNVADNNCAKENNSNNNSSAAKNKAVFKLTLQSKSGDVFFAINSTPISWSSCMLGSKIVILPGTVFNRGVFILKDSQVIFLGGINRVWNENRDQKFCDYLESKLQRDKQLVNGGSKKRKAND

binding result (GST-Esc2-5E): binds
binding result (GST-Esc2-MRΔ): binds
B1: Ubc9 (SUMO E2) (enzyme, budding yeast, UniProt P50623 1-157, looked up)
chain: MSSLCLQRLQEERKKWRKDHPFGFYAKPVKKADGSMDLQKWEAGIPGKEGTNWAGGVYPITVEYPNEYPSKPPKVKFPAGFYHPNVYPSGTICLSILNEDQDWRPAITLKQIVLGVQDLLDSPNPNSPAQEPAWRSFSRNKAEYDKKVLLQAKQYSK
notes: Ubc9, the SUMO E2 enzyme of budding yeast; source: E. coli, purified (previously published procedures)

B2: HJ-DNA (H3/H5/H7/H8) (structured_DNA)
DNA 1: TTGATAAGAGGTCATTTGAATTCATGGCTTAGAGCTTAATTGCTGAATCTGGTGCTGGGATCCAACATGTTTTAAATATG
DNA 2: CATATTTAAAACATGTTGGATCCCAGCACCAGATTCAGCATACGTTACCGATCGTACGTTCGATGCTGGCTACTGCTAGC
DNA 3: GCTAGCAGTAGCCAGCATCGAACGTACGATCGGTAACGTAGTCGATTATCGAGATCAAGCTAGCATAGCCATAGCGCGAC
DNA 4: GTCGCGCTATGGCTATGCTAGCTTGATCTCGATAATCGACATTAAGCTCTAAGCCATGAATTCAAATGACCTCTTATCAA
binding result (Esc2): binds
binding result (Mms21;Smc5): binds
binding result (Esc2-MRΔ; [3]): no binding
binding result (Esc2-5E; [3]): no binding
binding result (Sgs1;Top3;Rmi1 [1]): binds

B3: dsDNA (H3/H4) (dsDNA)
DNA 1: TTGATAAGAGGTCATTTGAATTCATGGCTTAGAGCTTAATTGCTGAATCTGGTGCTGGGATCCAACATGTTTTAAATATG
DNA 2: CATATTTAAAACATGTTGGATCCCAGCACCAGATTCAGCAATTAAGCTCTAAGCCATGAATTCAAATGACCTCTTATCAA
binding result (Sgs1;Top3;Rmi1 [2]): binds
binding result (Esc2-MRΔ; blunt): no binding
binding result (Esc2-5E; blunt): no binding
